Laboratory results taken from patent US20230312724A1 (KADMON, published 2023).
Like-named read-outs stand apart in the source and are kept apart here. Values belong to the binder of their own block, whether it stands above or below them.

Tests used:
[1] = biological target: T1, hB7-H4 (soluble human B7-H4, construct not named) (human, UniProt Q7Z7D3 25-259, limits assumed); assay: ELISA, hB7-H4
T1 construct: also called soluble hB7-H4
T1 sequence: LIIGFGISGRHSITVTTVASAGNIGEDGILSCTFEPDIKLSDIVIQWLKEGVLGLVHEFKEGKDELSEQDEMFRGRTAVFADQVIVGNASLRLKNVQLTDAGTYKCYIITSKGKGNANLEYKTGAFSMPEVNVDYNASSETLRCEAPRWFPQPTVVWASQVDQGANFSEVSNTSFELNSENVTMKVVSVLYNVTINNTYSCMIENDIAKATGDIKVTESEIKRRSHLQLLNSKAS
Method in brief: (§1)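 OD450 was plotted against antibody concentration to derive EC50. Plates carried ~1-2 μg/ml human or mouse B7-H4-Fc (or his-tagged) coated overnight at 4° C; antibodies in serial dilution incubated 1-1.5 h at RT, with HRP-anti-hFab/TMB detection.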

[2] = biological target: T2, mB7-H4 (soluble mouse B7-H4, construct not named) (mouse, UniProt Q7TSP5 25-257, limits assumed); assay: ELISA, mB7-H4
T2 sequence: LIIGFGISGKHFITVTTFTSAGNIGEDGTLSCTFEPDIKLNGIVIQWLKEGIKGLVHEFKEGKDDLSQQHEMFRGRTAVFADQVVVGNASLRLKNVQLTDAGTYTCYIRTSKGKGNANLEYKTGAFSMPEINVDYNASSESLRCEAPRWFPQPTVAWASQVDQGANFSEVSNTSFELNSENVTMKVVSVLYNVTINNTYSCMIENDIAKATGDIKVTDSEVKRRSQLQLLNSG
Method in brief: as §1

[3] = biological target: T3, human B7-H4 expressed on cells (human, UniProt Q7Z7D3 25-282); assay: flow cytometry, MDA-MB-468 cells
T3 construct: Transfected CHO cells or tumor cell lines that carry hB7-H4; also called cellular hB7-H4
T3 sequence: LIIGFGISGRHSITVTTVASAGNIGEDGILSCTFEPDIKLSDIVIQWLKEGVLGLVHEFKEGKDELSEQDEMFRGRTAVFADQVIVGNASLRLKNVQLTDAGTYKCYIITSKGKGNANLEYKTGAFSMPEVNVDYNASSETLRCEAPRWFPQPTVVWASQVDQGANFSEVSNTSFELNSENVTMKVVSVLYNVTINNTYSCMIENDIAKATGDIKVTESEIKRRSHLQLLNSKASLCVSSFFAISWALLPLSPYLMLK
Method: (§2) Cells were harvested, washed once, and then re-suspended to the concentration of 1×10⁶ cells/ml in ice cold FACS Buffer. 25 μl of cell suspension was added to each well of a 96-well round-bottom microliter plate. Serially diluted antibodies or fusion proteins were added to each well and incubated for 1 hour at 4° C. Cells were washed three times by centrifugation at 1500 rpm for 5 minutes, and then stained with secondary antibody (1:200 dilution) for 30 min at 4° C. in the dark. Cells were washed once, re-suspended in 100 μl PBS buffer and then analyzed using Guava Flow Cytometry EasyCyte system.

[4] = biological target: T4, IgV domain of mouse B7-H4-Fc (mouse; human); assay: ELISA, coated mB7-H4 IgV domain
T4 construct: also called mB7-H4 IgV domain
T4 sequence (chain, as listed by the source): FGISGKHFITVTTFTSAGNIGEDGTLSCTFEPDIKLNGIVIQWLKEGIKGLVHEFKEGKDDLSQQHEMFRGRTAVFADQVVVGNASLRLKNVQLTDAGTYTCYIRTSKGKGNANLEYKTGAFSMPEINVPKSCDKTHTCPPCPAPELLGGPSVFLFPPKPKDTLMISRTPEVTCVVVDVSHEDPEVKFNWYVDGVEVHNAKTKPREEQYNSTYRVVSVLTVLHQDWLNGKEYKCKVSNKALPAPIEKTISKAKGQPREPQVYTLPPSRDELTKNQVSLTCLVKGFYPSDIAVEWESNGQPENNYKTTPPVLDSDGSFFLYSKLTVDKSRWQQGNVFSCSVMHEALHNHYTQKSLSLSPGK

[5] = biological target: T5, IgC domain of mouse B7-H4-Fc (mouse; human); assay: ELISA, coated mB7-H4 IgC domain
T5 construct: also called mB7-H4 IgC domain
T5 sequence (chain, as listed by the source): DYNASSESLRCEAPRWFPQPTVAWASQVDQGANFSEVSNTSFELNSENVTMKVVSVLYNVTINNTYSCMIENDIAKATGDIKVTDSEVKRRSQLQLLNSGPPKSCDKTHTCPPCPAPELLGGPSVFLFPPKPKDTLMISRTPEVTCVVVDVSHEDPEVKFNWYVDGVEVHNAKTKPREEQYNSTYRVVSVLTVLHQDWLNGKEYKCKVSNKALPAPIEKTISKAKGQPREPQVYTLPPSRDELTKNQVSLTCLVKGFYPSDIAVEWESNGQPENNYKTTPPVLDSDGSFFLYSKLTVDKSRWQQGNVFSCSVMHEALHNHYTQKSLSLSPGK

[6] = biological target: T6, mouse B7-H4 expressed on cells (mouse, UniProt Q7TSP5 25-257); assay: flow cytometry on mB7H4-CT26 cells
T6 construct: also called cellular mB7-H4; mB7-H4/CT26
T6 sequence: T2 sequence
Method: as §2

[7] = biological target: T7, human B7-H4-Fc (human); assay: ELISA, coated hB7-H4-Fc
T7 construct: also called hB7-H4-Fc; hB7-H4 Fc
T7 sequence (chain, as listed by the source): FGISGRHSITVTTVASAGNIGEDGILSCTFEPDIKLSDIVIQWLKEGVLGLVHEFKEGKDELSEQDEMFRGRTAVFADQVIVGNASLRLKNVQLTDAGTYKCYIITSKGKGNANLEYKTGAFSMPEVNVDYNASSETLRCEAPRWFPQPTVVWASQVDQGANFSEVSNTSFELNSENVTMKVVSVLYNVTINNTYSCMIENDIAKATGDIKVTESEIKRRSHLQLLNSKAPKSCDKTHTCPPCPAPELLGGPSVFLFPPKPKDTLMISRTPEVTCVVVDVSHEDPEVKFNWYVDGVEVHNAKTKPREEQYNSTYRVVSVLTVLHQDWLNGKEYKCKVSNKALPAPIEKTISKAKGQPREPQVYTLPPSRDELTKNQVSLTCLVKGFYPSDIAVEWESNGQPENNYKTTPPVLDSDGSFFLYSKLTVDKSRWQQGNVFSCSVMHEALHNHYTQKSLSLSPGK
Method: ELISA experiments were performed to determine binding to hB7-H4-Fc (FIG. 4A), hB7-H4-his (FIG. 4B), hB7-H4 IgV domain (FIG. 4C), and mB7-H4 IgV domain (FIG. 4D). Flow cytrometry experiments were performed to determine binding to CHO cells expressing hB7-H4 (FIG. 4E) or mB7-H4 (FIG. 4F). […] A cross-reactive IgV binding antibody was used as a control.
(§3) About 1-2 μg/ml of human or mouse B7-H4-Fc (or his-tagged) was immobilized on ELISA plates (Immuno 2HB, Thermo scientific, cat #3455) at 4° C. overnight. After blocking the plates with 3% PBS+milk, serial diluted antibodies were added to the blocked plates and incubated at RT for 1-1.5 h. After washing the plates with PBS-T (0.05%), horse radish peroxidase (HRP)-conjugated antibody targeting the hFab was added to the plate. Signals were developed by adding 3,3′,5,5′-Tetramethylbenzidine (TMB (followed 1N of H₂SO₄ to stop the reaction. The OD at 450 nm was read by ELISA plate reader (Infinite M1000 from TECAN). GraphPad from Prism was used to plot OD450 vs. antibody concentration curve and to calculate the EC50 values.

[8] = biological target: T7, human B7-H4-Fc; assay: ELISA, coated hB7-H4-Fc; remark: listed apart in the source
Method: (§4) ELISA experiments were performed to determine binding to hB7-H4-Fc (FIG. 5A), hB7-H4-his (FIG. 5B), mB7-H4-Fc domain (FIG. 5C), hB7-H4 IgV domain (FIG. 5D), and hB7-H4 IgC domain (FIG. 5E). Flow cytrometry experiments were performed to determine binding to CHO cells expressing hB7-H4 (FIG. 5F) or mB7-H4 (FIG. 5G). […] A cross-reactive IgV binding antibody and an IgC binding antibody were used as controls.
as §3

[9] = biological target: T7, human B7-H4-Fc; assay: ELISA, coated hB7-H4-Fc; remark: listed apart in the source
Method in brief: as §1

[10] = biological target: T8, mouse B7-H4-Fc (mouse; human); assay: ELISA, coated mB7-H4-Fc
T8 construct: also called mB7-H4-Fc; mB7-H4-hFc
T8 sequence (chain, as listed by the source): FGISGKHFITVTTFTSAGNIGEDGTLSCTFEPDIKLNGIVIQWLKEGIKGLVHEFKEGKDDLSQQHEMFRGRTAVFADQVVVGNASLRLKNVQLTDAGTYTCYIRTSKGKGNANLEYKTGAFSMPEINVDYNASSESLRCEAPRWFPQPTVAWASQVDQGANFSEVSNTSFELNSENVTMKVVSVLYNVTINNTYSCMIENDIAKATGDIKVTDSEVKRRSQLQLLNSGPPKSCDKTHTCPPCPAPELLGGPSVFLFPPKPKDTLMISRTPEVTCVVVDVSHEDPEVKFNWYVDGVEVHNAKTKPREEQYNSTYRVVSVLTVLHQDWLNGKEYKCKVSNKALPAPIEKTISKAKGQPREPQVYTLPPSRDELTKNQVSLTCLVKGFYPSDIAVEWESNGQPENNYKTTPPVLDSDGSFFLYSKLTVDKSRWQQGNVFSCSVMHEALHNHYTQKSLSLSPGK
Method in brief: as §1

[11] = biological target: T9, human B7-H4-his (human, UniProt Q7Z7D3 25-259); assay: ELISA, coated hB7-H4-his
T9 construct: also called hB7-H4-his; hB7-H4 his; not shown: his tag
T9 sequence: T1 sequence
Method in brief: as §1

[12] = biological target: T8, mouse B7-H4-Fc; assay: ELISA on coated mB7-H4-Fc
Method: as §3

[13] = biological target: T10, IgV domain of human B7-H4-Fc (human); assay: ELISA, coated hB7-H4 IgV domain
T10 construct: also called hB7-H4 IgV domain
T10 sequence (chain, as listed by the source): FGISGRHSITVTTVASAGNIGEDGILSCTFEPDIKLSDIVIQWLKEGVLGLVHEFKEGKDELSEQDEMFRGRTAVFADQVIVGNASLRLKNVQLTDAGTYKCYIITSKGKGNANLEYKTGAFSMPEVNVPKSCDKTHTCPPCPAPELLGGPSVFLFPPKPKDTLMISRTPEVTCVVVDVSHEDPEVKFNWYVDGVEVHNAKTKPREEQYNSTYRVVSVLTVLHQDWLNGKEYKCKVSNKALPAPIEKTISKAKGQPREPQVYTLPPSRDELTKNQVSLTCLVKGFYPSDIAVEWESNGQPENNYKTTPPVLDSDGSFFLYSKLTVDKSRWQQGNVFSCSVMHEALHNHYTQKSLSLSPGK
Method: as §4, §3

[14] = biological target: T10, IgV domain of human B7-H4-Fc; assay: ELISA on coated IgV domain of hB7-H4
Method: as §3

[15] = biological target: T4, IgV domain of mouse B7-H4-Fc; assay: ELISA on coated IgV domain of mB7-H4
Method: as §3

- EC50 [1]: 0.068 nM
- EC50 [2]: 0.096 nM
- EC50 [3]: 13.1 nM
- EC50 (read off the curve) [4]: ~0.2 nM
- binding result [5]: no binding (tested: log 1 nM (10 nM))
- EC50 (read off the curve) [6]: ~2 nM
B1: 39A11/57G8 (antibody, human IgG1, V domains shown)
VH: EVQLLESGGGLVQPGGSLRLSCAASGFTFSSYGMHWVRQAPGKGLEWVASISSSSGYIYYADSVKGRFTISRDNSKNTLYLQMNSLRAEDTAVYYCARASSGMDVWGQGTTVTVSS
VL: DIQMTQSPSSLSASVGDRVTITCRASQSIRSYLNWYQQKPGKAPKLLIYYASSLQSGVPSRFSGSGSGTDFTLTISSLQPEDFATYYCQQYYSTPLTFGQGTKVEIK
notes: 39A11 VH with 57G8 VL

- EC50 (read off the curve) [7]: ~0.02 µg/mL
- EC50 (read off the curve) [8]: ~0.07 nM
- EC50 (read off the curve) [9]: ~0.1 nM
- EC50 (read off the curve) [10]: ~0.1 nM
- EC50 (read off the curve) [11]: ~0.2 nM
- EC50 (read off the curve) [12]: ~0.1 nM
- EC50 (read off the curve) [13]: ~0.2 nM
- EC50 (read off the curve) [4]: ~0.3 nM
- binding result [5]: no binding (tested: log 1 nM (10 nM))
- EC50 (read off the curve) [14]: ~0.2 nM
- EC50 (read off the curve) [15]: ~0.2 nM
B2: Control antibody 1 (antibody 20502 described in US20190085080A1) (antibody, V domains shown)
VH: QLQLQESGPGLVKPSETLSLTCTVSGGSIKSGSYYWGWIRQPPGKGLEWIGNIYYSGSTYYNPSLRSRVTISVDTSKNQFSLKLSSVTAADTAVYYCAREGSYPNQFDPWGQGTLVTVSS
VL: EIVMTQSPATLSVSPGERATLSCRASQSVSSNLAWYQQKPGQAPRLLIYGASTRATGIPARFSGSGSGTEFTLTISSLQSEDFAVYYCQQYHSFPFTFGGGTKVEIK
notes: also called (+) control Ab1; (+) Ab1
